The target in this assay is T1, recombinant human CD123-Fc (human, UniProt P26951 19-305, limits assumed).
T1 construct: Treated as one molecule; also called CD123-Fc peptide (Novoprotein); recombinant IL3R-alpha Fc-tagged; not shown: Fc tag
T1 sequence (looked up): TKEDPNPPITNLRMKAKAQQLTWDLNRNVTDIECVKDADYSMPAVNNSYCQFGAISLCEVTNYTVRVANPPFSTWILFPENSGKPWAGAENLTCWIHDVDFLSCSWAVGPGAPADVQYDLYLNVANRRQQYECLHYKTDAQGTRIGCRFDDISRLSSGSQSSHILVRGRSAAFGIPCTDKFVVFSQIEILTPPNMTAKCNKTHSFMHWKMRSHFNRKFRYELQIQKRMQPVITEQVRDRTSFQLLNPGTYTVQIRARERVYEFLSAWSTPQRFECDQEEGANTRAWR
Nature of the assay: flow cytometry, CAR T cells stained with recombinant IL3R-alpha Fc-tagged, anti-Fc AF647. As to the method:
Half million CAR T cells were washed two times in cold AutoMACS buffer supplemented with 0.5% bovine serum albumin (Miltenyi Biotec, Bergisch Gladbach, Germany) and stained with 2.5 ug/ml CD123-Fc peptide (Novoprotein, Summit, NJ), followed by anti Fc-AF647 conjugate (Jackson ImmunoResearch, West Grove, PA). The 7-Aminoactinomycin D staining (7-AAD, BD Biosciences, San Jose, CA) was added to exclude dead cells. Non-transduced cells (UTD) were used as a negative control. Cells were washed twice with AutoMACS buffer supplemented with 0.5% bovine serum albumin, resuspended in 200 ul staining buffer and acquired by flow cytometry. Flow cytometric analysis was performed on a MACSQuant® 10 Analyzer (Miltenyi Biotec), and data plots were generated using FlowJo software (Ashland, OR).
Lentiviral vectors encoding the CD123 CAR constructs were used for CAR transduction into human primary T cells at multiplicity of infection (MOI) of 40. CAR surface expression of transduced T cells by flow cytometry using recombinant IL3R-alpha Fc-tagged, followed by staining with anti-Fc Alexa Flour 647.
In general terms: A flow cytometer gives signals particle by particle.

B1: CAR D0131 CD123 MB42-D03 CD8 BBz (other)
chain: QVQLVQSGAEVKKPGASVKVSCKASGYTFTSYGISWVRQAPGQGLEWMGWISAYNGNTNYAQKLQGRVTMTTDTSTSTAYMELRSLRSDDTAVYYCARGAYYDFWSSYSWFDPWGQGTLVTVSSGGGGSGGGGSGGGGSSYVLTQPPSVSVAPGKTARITCGGNSIGSKSVQWYQQKPGQAPVLVIYDDSDRPSGIPERFSGSNSGNTATLTISRVEAGDEADYYCQVWDSSSDVVFGGGTKLTVLAAATTTPAPRPPTPAPTIASQPLSLRPEACRPAAGGAVHTRGLDFACDIYIWAPLAGTCGVLLLSLVITLYCKRGRKKLLYIFKQPFMRPVQTTQEEDGCSCRFPEEEEGGCELRVKFSRSADAPAYQQGQNQLYNELNLGRREEYDVLDKRRGRDPEMGGKPRRKNPQEGLYNELQKDKMAEAYSEIGMKGERRRGKGHDGLYQGLSTATKDTYDALHMQALPPR
notes: Chimeric antigen receptor on transduced human primary T cells; also called EF-1a-CD123 MB42-D03 CD8 BBz; CAR123 D0131
As for B1, the binding result is reported as “binds”.

B2: CAR D0134 CD123 MB44-H01 CD8 BBz (other)
chain: QVQLVQSGAEVKKPGSSVKVSCKASGGTFSSYAISWVRQAPGQGLEWMGGIIPIFGTANYAQRFQGRVTITADESTSTAYMELSSLRSEDTAVYYCARGLGTSYYYYYMDVWGKGTTVTVSSGGGGSGGGGSGGGGSQSVLTQPPSASGSPGQSVTISCTGTSSDVGGYNYVSWYQQHPGKAPKLMIYEVSNRPSGVSNRFSGSKSGNTASLTISGLQAEDEADYYCSSYTSSSTPVVFGGGTKLTVLAAATTTPAPRPPTPAPTIASQPLSLRPEACRPAAGGAVHTRGLDFACDIYIWAPLAGTCGVLLLSLVITLYCKRGRKKLLYIFKQPFMRPVQTTQEEDGCSCRFPEEEEGGCELRVKFSRSADAPAYQQGQNQLYNELNLGRREEYDVLDKRRGRDPEMGGKPRRKNPQEGLYNELQKDKMAEAYSEIGMKGERRRGKGHDGLYQGLSTATKDTYDALHMQALPPR
notes: Chimeric antigen receptor on transduced human primary T cells; also called EF-1a-CD123 MB44 -H01CD8 BBz
Turning to B2, the binding result was “binds”.

B3: CAR D0130 CD123 MB40-H08 CD8 BBz (other)
chain: QVQLVQSGAEVKKPGSSVKVSCKASGGTFSSYAISWVRQAPGQGLEWMGGIIPIFGTANYAQKFQGRVTITADESTSTAYMELSSLRSEDTAVYYCARNEWYSYYYYYMGVWGKGTTVTVSSGGGGSGGGGSGGGGSQSALTQPASVSGSPGQSITISCTGTSSDVGGYNYVSWYQQHPGKAPKLMIYEVSNRPSGVSNRFSGSKSGNTASLTISGLQAEDEADYYCSSYTSSSTLVVFGGGTKLTVLAAATTTPAPRPPTPAPTIASQPLSLRPEACRPAAGGAVHTRGLDFACDIYIWAPLAGTCGVLLLSLVITLYCKRGRKKLLYIFKQPFMRPVQTTQEEDGCSCRFPEEEEGGCELRVKFSRSADAPAYQQGQNQLYNELNLGRREEYDVLDKRRGRDPEMGGKPRRKNPQEGLYNELQKDKMAEAYSEIGMKGERRRGKGHDGLYQGLSTATKDTYDALHMQALPPR
notes: Chimeric antigen receptor on transduced human primary T cells; also called EF-1a-CD123 MB40-H08 CD8 BBz
Consider B3, for which the binding result is recorded as “binds”.

B4: CAR LTG2078 CD123 M12306 CD8 BBz (other)
chain: EVQLVQSGSELKKPGASVKVSCKASGGTFSSYAISWVRQAPGQGLEWMGGIIPIFGTANYAQKFQGRVTITADESTSTAYMELSSLRSEDTAVYYCASTARRGWDTAGPLDYWGQGTLVTVSSGGGGSGGGGSGGGGSDIQMTQSPSSLSASVGDRVTIACRASQTISRYLNWYQQKPGKAPKLLIYAASSLQSGVSSRFSGSGSGTEFTLTISSLQPEDFATYFCQQTYSPPITFGQGTRLEIKAAATTTPAPRPPTPAPTIASQPLSLRPEACRPAAGGAVHTRGLDFACDIYIWAPLAGTCGVLLLSLVITLYCKRGRKKLLYIFKQPFMRPVQTTQEEDGCSCRFPEEEEGGCELRVKFSRSADAPAYQQGQNQLYNELNLGRREEYDVLDKRRGRDPEMGGKPRRKNPQEGLYNELQKDKMAEAYSEIGMKGERRRGKGHDGLYQGLSTATKDTYDALHMQALPPR
notes: Control chimeric antigen receptor on transduced human primary T cells; Leader (residues 1-22) left out; also called EF-1a CD123 CD8 BBz
Consider B4, for which the binding result is reported as “binds”.

B5: CAR D0132 CD123 MB42-E02 CD8 BBz (other)
chain: QVQLVQSGAEVKKPGASVKVSCKASGYTFTSYGISWVRQAPGQGLEWMGWISAYNGNTNYAQKLQGRVTMTTDTSTSTAYMELRSLRSDDTAVYYCARGAYYDFWSGYSWFDPWGQGTLVTVSSGGGGSGGGGSGGGGSQSVLTQPPSVSVAPGQTARIPCGGNNIGSKGVHWYQQKSGQAPVMVVYDDSDRPSGIPERFSGSNSGNTATLTISRVEAGDEADYYCQVWDSSGDLVLFGGGTKLTVLAAATTTPAPRPPTPAPTIASQPLSLRPEACRPAAGGAVHTRGLDFACDIYIWAPLAGTCGVLLLSLVITLYCKRGRKKLLYIFKQPFMRPVQTTQEEDGCSCRFPEEEEGGCELRVKFSRSADAPAYQQGQNQLYNELNLGRREEYDVLDKRRGRDPEMGGKPRRKNPQEGLYNELQKDKMAEAYSEIGMKGERRRGKGHDGLYQGLSTATKDTYDALHMQALPPR
notes: Chimeric antigen receptor on transduced human primary T cells; also called EF-1a-CD123 MB42-E02 CD8 BBz
Take B5: the binding result was “binds”.

B6: CAR D0133 CD123 MB42-E12 CD8 BBz (other)
chain: QVQLVQSGAEVKKPGASVKVSCKASGYTFTSYGISWVRQAPGQGLEWMGWISAYNGNTNYAQKLQGRVTMTTDTSTSTAYMELRSLRSDDTAVYYCARGAYYDFWSSYSWFDPWGQGTLVTVSSGGGGSGGGGSGGGGSSYVLTQPPSVSVAPGKTARITCGGNNIGSKSVHWYQQKPGQAPVLVVYDDSDRPSGIPERFSGSNSGNTATLTISRVEAGDEADYYCQVWDSSSDHVVFGGGTKLTVLAAATTTPAPRPPTPAPTIASQPLSLRPEACRPAAGGAVHTRGLDFACDIYIWAPLAGTCGVLLLSLVITLYCKRGRKKLLYIFKQPFMRPVQTTQEEDGCSCRFPEEEEGGCELRVKFSRSADAPAYQQGQNQLYNELNLGRREEYDVLDKRRGRDPEMGGKPRRKNPQEGLYNELQKDKMAEAYSEIGMKGERRRGKGHDGLYQGLSTATKDTYDALHMQALPPR
notes: Chimeric antigen receptor on transduced human primary T cells; also called EF-1a-CD123 MB42-E12 CD8 BBz
In the case of B6, the binding result was “binds”.

These data come from patent US20230338424A1 (LENTIGEN TECHNOLOGY, published 2023).
